Target: gp140ΔCFI B(C-HR2) ext 2F5 (HIV-1 strain HXB2 (clade B); HIV-1 strain BaL (clade B); HIV-1; HIV-1 strain 97ZA012 (clade C)) (UniProt P04578)
Experiment: ELISA on Env from transfected 293 cells

monoclonal antibody 2F5
fold higher reactivity than the parental clade B gp140ΔCFI: 20 to 30 fold

Source: US20110274721A1
